Data: the supplement of paper PMC6757056
± gives the standard deviation of the averaged measurements.

B1: library; a variant is named by its letters at N, in order (parent)
chain: GCUGUCACCGGAAUACCAGCAUCGUCUUGAUGCCCUUGGAAGUCCGGUCUGAUGAGUCCNNNNNGGACGAAACAGC

Columns and labels:
theophylline [1] = variants of: B1; assay: FACS-Seq fitted mean relative fluorescence mCherry/BFP without ligand (log10 relative fluorescence); higher = higher reporter protein expression; settings: HEK293T, ligand present: no
Summary of the method: (§1)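 Sorting into 6 bins by mCherry/BFP followed 48 h of incubation with or without ligand. The cells were enriched HEK293T libraries lentivirally bearing an mCherry reporter with the ribozyme switch and an EF1α-BFP marker, and bin genomic DNA was PCR-amplified, barcoded and sequenced on MiSeq. Fluorescence is the fitted normal mean of the bin counts. Means were fitted on log10(mCherry/BFP), scaled to five spiked-in control ribozymes.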

theophylline [2] = variants of: B1; assay: normalized RNA/DNA level with ligand (relative to sTRSVctl = 100) (log10 (% of sTRSVctl)); higher = less ribozyme self-cleavage, higher mRNA level; settings: ligand concentration (+) RNA-Seq: 5 mM, HEK293T, reporter: mCherry (pCS4076), ligand present: yes
Summary of the method: (§2)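 RNA level was computed as RNA reads over DNA reads divided by a spiked-in non-cleaving sequence or by the top sequences, then scaled and log-transformed. Scaling was ×100 with log10, the top group was 25 sequences, and the threshold was ≥100 DNA reads. The reads came from HEK293T cells transfected at 4 µg per 6-well well with ribozyme switch library plasmids (mCherry, or eGFP in some ligand experiments). Total RNA was extracted with EDTA 72 h after transfection, with any ligand added 1 h before it.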

theophylline [3] = variants of: B1; assay: normalized RNA/DNA level without ligand (relative to sTRSVctl = 100) (log10 (% of sTRSVctl)); higher = less ribozyme self-cleavage, higher mRNA level; settings: HEK293T, reporter: mCherry (pCS4076), ligand present: no
Summary of the method: as §2

theophylline [4] = variants of: B1; assay: FACS-Seq fitted mean relative fluorescence mCherry/BFP with ligand (log10 relative fluorescence); ligand concentration (+) FACS-Seq: 1 mM; higher = higher reporter protein expression; settings: HEK293T, ligand present: yes
Summary of the method: as §1

Row | Variant | FACS-Seq fitted mean (log10) (theophylline [1]) | normalized RNA/DNA level with ligand (log10) (theophylline [2]) | normalized RNA/DNA level without ligand (log10) (theophylline [3]) | FACS-Seq fitted mean (log10) (theophylline [4])
1 | GCUGUCACCGGAAUACCAGCAUCGUCUUGAUGCCCUUGGAAGUCCGGUCUGAUGAGUCCUGUGAGGACGAAACAGC [UGUGA] | 0.563 ± 0.0013 | 2.05 ± 0.037 | 1.54 ± 0.11 | 0.837 ± 0.034
2 | GCUGUCACCGGAAUACCAGCAUCGUCUUGAUGCCCUUGGAAGUCCGGUCUGAUGAGUCCUGCCCGGACGAAACAGC [UGCCC] | 0.979 ± 0.077 | 2.01 ± 0.026 | 2.03 ± 0.043 | 0.875 ± 0.012
3 | GCUGUCACCGGAAUACCAGCAUCGUCUUGAUGCCCUUGGAAGUCCGGUCUGAUGAGUCCAGCAGGGACGAAACAGC [AGCAG] | 0.801 ± 0.041 | 2.03 ± 0.12 | 1.81 ± 0.027 | 0.944 ± 0.048
4 | GCUGUCACCGGAAUACCAGCAUCGUCUUGAUGCCCUUGGAAGUCCGGUCUGAUGAGUCCACGCCGGACGAAACAGC [ACGCC] | 1.08 ± 0.17 | 1.95 ± 0.074 | 1.94 ± 0.19 | 0.984 ± 0.017
5 | GCUGUCACCGGAAUACCAGCAUCGUCUUGAUGCCCUUGGAAGUCCGGUCUGAUGAGUCCUCAGAGGACGAAACAGC [UCAGA] | 0.377 ± 0.081 | 1.96 ± 0.099 | 1.55 ± 0.13 | 0.6274 ± 0.0049
6 | GCUGUCACCGGAAUACCAGCAUCGUCUUGAUGCCCUUGGAAGUCCGGUCUGAUGAGUCCCAUUUGGACGAAACAGC [CAUUU] | 0.805 ± 0.079 | 2.1059 ± 0.00056 | 1.74 ± 0.12 | 0.945 ± 0.13
7 | GCUGUCACCGGAAUACCAGCAUCGUCUUGAUGCCCUUGGAAGUCCGGUCUGAUGAGUCCAAAACGGACGAAACAGC [AAAAC] | 0.834 ± 0.057 | 1.944 ± 0.014 | 1.77 ± 0.066 | 0.873 ± 0.075
8 | GCUGUCACCGGAAUACCAGCAUCGUCUUGAUGCCCUUGGAAGUCCGGUCUGAUGAGUCCACGGCGGACGAAACAGC [ACGGC] | 1.25 ± 0.15 | 1.97 ± 0.059 | 1.97 ± 0.067 | 1.17 ± 0.014
9 | GCUGUCACCGGAAUACCAGCAUCGUCUUGAUGCCCUUGGAAGUCCGGUCUGAUGAGUCCAGUGGGGACGAAACAGC [AGUGG] | 0.488 ± 0.2 | 1.98 ± 0.064 | 1.84 ± 0.036 | 0.504 ± 0.026
10 | GCUGUCACCGGAAUACCAGCAUCGUCUUGAUGCCCUUGGAAGUCCGGUCUGAUGAGUCCCGGGAGGACGAAACAGC [CGGGA] | 0.508 ± 0.043 | 2.01 ± 0.033 | 1.74 ± 0.071 | 0.753 ± 0.077
11 | GCUGUCACCGGAAUACCAGCAUCGUCUUGAUGCCCUUGGAAGUCCGGUCUGAUGAGUCCAUAAGGGACGAAACAGC [AUAAG] | 0.547 ± 0.16 | 1.97 ± 0.17 | 1.79 ± 0.082 | 0.578 ± 0.014
12 | GCUGUCACCGGAAUACCAGCAUCGUCUUGAUGCCCUUGGAAGUCCGGUCUGAUGAGUCCUCCACGGACGAAACAGC [UCCAC] | 0.712 ± 0.067 | 2.05 ± 0.04 | 1.95 ± 0.12 | 0.737 ± 0.036
13 | GCUGUCACCGGAAUACCAGCAUCGUCUUGAUGCCCUUGGAAGUCCGGUCUGAUGAGUCCACCUCGGACGAAACAGC [ACCUC] | 0.785 ± 0.011 | 2.04 ± 0.034 | 1.98 ± 0.042 | 0.737 ± 0.044
14 | GCUGUCACCGGAAUACCAGCAUCGUCUUGAUGCCCUUGGAAGUCCGGUCUGAUGAGUCCACUGGGGACGAAACAGC [ACUGG] | 1 ± 0.065 | 2.05 ± 0.12 | 1.91 ± 0.091 | 0.915 ± 0.066
15 | GCUGUCACCGGAAUACCAGCAUCGUCUUGAUGCCCUUGGAAGUCCGGUCUGAUGAGUCCAUUUCGGACGAAACAGC [AUUUC] | 1 ± 0.085 | 2.01 ± 0.07 | 1.97 ± 0.11 | 0.865 ± 0.018
16 | GCUGUCACCGGAAUACCAGCAUCGUCUUGAUGCCCUUGGAAGUCCGGUCUGAUGAGUCCUAAUAGGACGAAACAGC [UAAUA] | 0.553 ± 0.011 | 2.03 ± 0.11 | 1.56 ± 0.15 | 0.868 ± 0.015
17 | GCUGUCACCGGAAUACCAGCAUCGUCUUGAUGCCCUUGGAAGUCCGGUCUGAUGAGUCCGCACUGGACGAAACAGC [GCACU] | 1.01 ± 0.018 | 1.966 ± 0.019 | 1.86 ± 0.022 | 1 ± 0.083
18 | GCUGUCACCGGAAUACCAGCAUCGUCUUGAUGCCCUUGGAAGUCCGGUCUGAUGAGUCCCGGAUGGACGAAACAGC [CGGAU] | 0.215 ± 0.064 | 2 ± 0.11 | 1.65 ± 0.11 | 0.522 ± 0.046
